# ± gives the uncertainty stated by the source.
# B1: V(D)J recombination-activating protein 2, residues 415 to 491; numbered along this chain, P55895 (parent)
# chain: YWITCCPTCDVDINTWVPFYSTELNKPAMIYCSHGDGHWVHAQCMDLAERTLIHLSAGSNKYYCNEHVEIARALHTP
# Variants of: B1
# Assay: abundance fitness (aPCA) (normalised: wild type 0, dead -1); higher = more abundant; growth selection in yeast, the domain comes from the species named
# Conditions: Homo sapiens
row,Variant,abundance fitness
1,E49V,-0.264 ± 0.049
2,E49W,-0.292 ± 0.071
3,E49F,-0.149 ± 0.093
4,E49N,-0.183 ± 0.14
5,W2Q,-0.382 ± 0.14
6,W2L,-0.467 ± 0.066
7,W2I,-0.333 ± 0.26
8,W2N,0.12 ± 0.31
9,A73S,-0.089 ± 0.14
10,A73T,0.033 ± 0.088
11,A73M,-0.121 ± 0.1
12,A73P,0.027 ± 0.13
13,H38A,-0.986 ± 0.48
14,D12N,-0.01 ± 0.37
15,D12V,-0.304 ± 0.3
16,D12E,0.083 ± 0.42
17,D12S,-0.229 ± 0.22
18,C64K,-0.842 ± 0.3
19,C64L,-1.07 ± 0.2
20,C64W,-0.901 ± 0.11
21,C64P,-0.822 ± 0.26
22,C64Q,-0.768 ± 0.23
23,C64M,-1.06 ± 0.46
24,C64F,-0.851 ± 0.37

row,Variant,abundance fitness
1,W16R,-0.35 ± 0.16
2,W16T,-0.144 ± 0.38
3,E69Q,0.147 ± 0.37
4,E69K,-0.183 ± 0.29
5,E69S,0.075 ± 0.11
6,E69P,0.358 ± 0.38
7,E69A,-0.092 ± 0.33
8,T8P,-0.159 ± 0.3
9,T8Y,-0.541 ± 0.45
10,T8W,-0.627 ± 0.41
11,T8Q,-0.258 ± 0.2
12,H75A,0.002 ± 0.08
13,H75C,-0.155 ± 0.092
14,H75D,0.094 ± 0.12
15,H75E,0.029 ± 0.12
16,H75W,-0.069 ± 0.064
17,H75Y,-0.179 ± 0.1
18,H75S,-0.042 ± 0.081
19,E66K,-0.099 ± 0.092
20,E66L,0.01 ± 0.066
21,E66M,0.048 ± 0.11
22,Q43P,-0.771 ± 0.48
23,Q43V,-0.116 ± 0.12
24,Q43M,-0.048 ± 0.19

row,Variant,abundance fitness
1,C6M,-0.393 ± 0.35
2,G58Y,-0.126 ± 0.11
3,G58C,-0.061 ± 0.13
4,G58W,-0.06 ± 0.092
5,G58S,-0.038 ± 0.071
6,G58N,-0.426 ± 0.19
7,G58M,-0.11 ± 0.2
8,G58V,-0.161 ± 0.084
9,A48L,0.001 ± 0.062
10,A48D,-0.044 ± 0.09
11,A48Q,0.105 ± 0.067
12,A48E,0.013 ± 0.066
13,A48P,0.037 ± 0.067
14,A48C,-0.061 ± 0.14
15,A48R,0.023 ± 0.058
16,V40F,-0.852 ± 0.3
17,V40T,-0.427 ± 0.14
18,V40G,-0.744 ± 0.13
19,L47V,0.034 ± 0.039
20,L47Y,-0.508 ± 0.15
21,L47M,0.05 ± 0.057
22,L47R,-0.419 ± 0.042
23,L47S,-0.277 ± 0.047
24,L47K,-0.515 ± 0.086

row,Variant,abundance fitness
1,T22R,-0.23 ± 0.11
2,T22D,-0.121 ± 0.39
3,T22P,-0.281 ± 0.24
4,L24F,-0.362 ± 0.3
5,L24V,-0.083 ± 0.12
6,L24I,-0.156 ± 0.25
7,Y63R,-0.049 ± 0.067
8,Y63D,-0.207 ± 0.096
9,K61R,-0.287 ± 0.2
10,K61A,0.017 ± 0.047
11,K61L,0.158 ± 0.1
12,K61E,-0.002 ± 0.16
13,K61S,-0.116 ± 0.13
14,S59W,-0.225 ± 0.071
15,S59T,0.02 ± 0.093
16,S59N,-0.25 ± 0.21
17,S59I,0.103 ± 0.16
18,R72Y,-0.332 ± 0.16
19,R72I,-0.121 ± 0.19
20,R72C,-0.143 ± 0.16
21,H67L,-0.741 ± 0.043
22,H67F,-0.485 ± 0.1
23,H67R,-0.253 ± 0.034
24,H67C,-0.031 ± 0.074

row,Variant,abundance fitness
1,H67N,-0.32 ± 0.096
2,H67Q,-0.348 ± 0.058
3,H67S,-0.196 ± 0.054
4,I53G,0.007 ± 0.064
5,T15A,-0.341 ± 0.21
6,T15G,0.055 ± 0.25
7,T15M,-0.011 ± 0.3
8,T15F,0.052 ± 0.36
9,T15V,0.015 ± 0.34
10,T15H,0.03 ± 0.29
11,T15R,-0.474 ± 0.5
12,I70E,-0.093 ± 0.097
13,I70L,0.03 ± 0.073
14,I70P,-0.216 ± 0.22
15,I70K,-0.139 ± 0.12
16,C32W,-0.861 ± 0.15
17,C32P,-0.887 ± 0.16
18,C32D,-1.14 ± 0.45
19,C32T,-0.99 ± 0.18
20,V68L,-0.08 ± 0.091
21,V68Q,-0.495 ± 0.48
22,V68G,0 ± 0.091
23,V68A,-0.173 ± 0.14
24,V68C,-0.019 ± 0.14

row,Variant,abundance fitness
1,V68W,-0.076 ± 0.2
2,V68I,-0.318 ± 0.2
3,H34R,-0.119 ± 0.074
4,H34S,-0.032 ± 0.07
5,H34L,-0.073 ± 0.059
6,H34C,-0.309 ± 0.19
7,H34A,-0.035 ± 0.069
8,T76K,0.081 ± 0.094
9,T76C,-0.416 ± 0.18
10,T76I,-0.155 ± 0.14
11,T76F,-0.373 ± 0.17
12,T76A,0.005 ± 0.076
13,M45W,-0.431 ± 0.13
14,M45V,-0.217 ± 0.064
15,M45Y,-0.296 ± 0.21
16,M45K,-0.202 ± 0.1
17,M45C,-0.181 ± 0.099
18,M45G,-0.43 ± 0.058
19,L52Q,-0.006 ± 0.084
20,L52F,-0.211 ± 0.11
21,L52E,-0.258 ± 0.095
22,L52Y,-0.318 ± 0.19
23,L52C,-0.145 ± 0.089
24,N60S,-0.062 ± 0.062

row,Variant,abundance fitness
1,W39T,-0.197 ± 0.049
2,W39H,-0.144 ± 0.11
3,W39D,-0.536 ± 0.093
4,W39F,-0.105 ± 0.074
5,W39L,-0.097 ± 0.033
6,W39M,-0.072 ± 0.036
7,G37E,-0.778 ± 0.26
8,D36P,-0.011 ± 0.14
9,D36K,-0.441 ± 0.29
10,D36T,-0.62 ± 0.45
11,D36M,-0.107 ± 0.2
12,A28T,-0.218 ± 0.28
13,A28E,-0.172 ± 0.29
14,A28K,-0.112 ± 0.3
15,A28G,-0.775 ± 0.27
16,A28H,-0.23 ± 0.34
17,A28Q,-0.104 ± 0.15
18,V11R,-0.75 ± 0.37
19,V11F,-0.386 ± 0.22
20,V11W,-0.178 ± 0.29
21,V11S,-0.437 ± 0.14
22,V11C,0.012 ± 0.38
23,V11G,-0.697 ± 0.14

# — the Human Domainome abundance scans (Beltran et al. 2025)
